According to the DeepSol protein solubility set:

assay: soluble on expression in E. coli; label from the status in PepcDB or PDB records

| Sequence | soluble on expression in E. coli |
| --- | --- |
| MGSDKIHHHHHHMRILLVGHYPPHKGGVARHVKQLKECLEKRHEVYVLTYGTVAVEEENVYSVKVPNIFGIRGTSFALLASKKIVKLHEKYNFDLVHAHYVGTTSFAGVLAKRKTGVPLVITAHGSDLEFMSRLPLGGYFVKTSIMEADYVIAVSHYLAKKALELGASRISVIPNWTELSGESERKYILFLGRVASYKGIEDFIELAKRFPGEEFVVAGEGPLLKKLRAKSPPNVKFLGYVPAEDVLKKAKVLVLPSKREGFGLVVIEANSFKVPVLGRNVGGIRELIRFSKNGYLFEDIEDAITYLKTLLVPKTNVKLGSIGKRISKGHSQEKMCERVEEIYREVIS | not soluble |
| MEQETLEQVHLTEDGGVVKTILRKGEGGEENAPKKGNEVTVHYVGKLESSGKVFDSSRERNVPFKFHLGQGEVIKGWDICVASMTKNEKCSVRLDSKYGYGEEGCGESIPGNSVLIFEIELISFRE | soluble |
| MPLALDDGDVNLSELRAFDLLGRCETGSIVNTVSLSSTGNYLAAGGFDHKVYYYDSRGTQLWNYTTGDIVYTVSISSDGSRIAAGSNDRKVYFFNREGELLWSRKTGGNINSVAVSSEGLYIATGGEDGKVYFLDKDGKLLWSFNSGDAVRSVAISRDGDYVLEHHHHHH | not soluble |
| MKQRPIPRPQTDTTAALQALADALACLRNSATVLAFLRDLCTPAELEALADRWRVVPLLLQGRPYRDIHDHTGISVTTIGRVARCLEHGTGGYAAVLQAQAMPPASSIEKPQ | not soluble |
| MSEDIFDAIIVGAGLAGSVAALVLAREGAQVLVIERGNSAGAKNVTGGRLYAHSLERIIPGFADQAPIERMITHEKLAFMTDNGAMTIDYCNGEDASASQVSYSVLRSKFDAWLMEQAEEAGAQLITGIRVDNVVQRDGKVVGVEADGDILEAKVVILADGVNSLLAEKLGMTKRVEASHVAVGVKELIELPKLVIEDRFQLQGNEGAACLFAGAPTDGLMGGGFLYTNETTLSLGLVCGLHHLKDAKKSVPQMLEDFKQHPAVAPLIAGGKLVEYAAHVVPEAGMNMQPELVGDGVLIAGDAAGMCMNLGFTIRGMDLAISAGEAAAKTVLSAMKRDDFSKQSLGEYRQHLDEGPMRDMRMYQKLPAFLDNPRMFTAYPEMAVNIARDLFTVDGSAPVPMRKKILRHAKKVGFINLMKDGLKGVTVL | not soluble |
| MILKASKEALKEAVEILKKGGIIVAPTDTLYGILADATNEEAVKRLYKIRRPSGKPFLVLLPDESWLEKLCLDVKEEHKKLLKVEGLTLVFRKTCDKLDYVSKGTLAVRLPQKGFIRDLLSELKKPVVAPSVNPEGKKPAESVEEAYNYFGNKVDLYIDAGVIKGEPSTILDLTEGVKILREGKVKKEEIEKILNRKL | soluble |
| MLFDTHAHLNAEQYDTDLEEVIERAKAEKVERIVVVGFDRPTITRAMEMIEEYDFIYAAIGWHPVDAIDMTEEDLAWIKELSAHEKVVAIGEMGLDYHWDKSPKDIQKEVFRNQIALAKEVNLPIIIHNRDATEDVVTILKEEGAEAVGGIMHCFTGSAEVARECMKMNFYLSFGGPVTFKNAKKPKEVVKEIPNDRLLIETDCPFLTPHPFRGKRNEPSYVKYVAEQIAELKEMTFEEIASITTENAKRLFRINLEHHHHHH | not soluble |
| MGHHHHHHSHMSETSFNLISEKCDILSILRDHPENRIYRRKIEELSKRFTAIRKTKGDGNCFYRALGYSYLESLLGKSREIFKFKERVLQTPNDLLAAGFEEHKFRNFFNAFYSVVELVEKDGSVSSLLKVFNDQSASDHIVQFLRLLTSAFIRNRADFFRHFIDEEMDIKDFCTHEVEPMATECDHIQITALSQALSIALQVEYVDEMDTALNHHVFPEAATPSVYLLYKTSHYNILYAADKH | soluble |
| MSLTISNEDNMILMSRYPDKYFDLAIVDPPYGILNKTKRGGDYKFNMNEYSQWDIKPDQTYFNELFRVSKNQIIWGGNYFGELWLRSEYNKGFIIWDKNQPETLNNFSMAEMAWSSFDRPSKIFRFSVRKNRNKTHPTQKPVELYQWLLKMYAKQGDKILDTHLGSGTLAIACCIAQFDLTACEINSDYYQQSIEKIKNNLPEARISFGHPGYCIIEEGGSHHHHHH | soluble |
| MSLSIPTIKQVRAFVLRGGGADYHDQGDGHWIDDHISTPMGKYPEYRQSRRSFGINVLGTLVVEIEASDGNVGFAVTTGGEPAAYIVEKHLARFLEGARVTDIERIWDQMYNSTLYYGRKGLVINTISGVDLALWDLLGKVRREPVHQLLGGAVRDELQFYATGARPDLAQKMGFIGGKMPLHHGPSEGEEGLKKNLEELATMRERVGPDFWLMFDCWMSLDLNYATRLARGAREYGLKWIEEALPPDDYWGYAELRRNAPTGMMVTTGEHEATRWGFRMLLEMGCCDIIQPDVGWCGGVTELLKISALADAHNALVVPHGSSVYSYHFVATRQNSPFAEFLMMAPKADQVVPMFHPQLLGEPVPENGRMRLSRLDQPGFGVTLNPECQLHRPYTHEGHHHHHH | soluble |
| MFGIDGLEFLVILLVLIVVVGPKDLPKMLKTMARAIAYVRSTANEFRHQFDDAIKQAELDDLQKTLSDMNDFNPDKKLTGILNPMQDIRGDILNNFDVNTTHHKLEKDQENFECNENKTNEDLDVPVDAHSSGSVFVTSKDKESAS | not soluble |
| AHHHHHHGSVKIGVIGLQGDVSEHIEATKRALERLGIEGSVIWVKRPEQLNQIDGVIIPGGESTTISRLMQRTGLFDPLKKMIEDGLPAMGTCAGLIMLAKEVIGATPEQKFLEVLDVKVNRNAYGRQVDSFEAPVKLAFDDKPFIGVFIRAPRIVELLSDKVKPLAWLEDRVVGVEQGNVIGLEFHPELTDDTRIHEYFLKKIV | soluble |
| MSKSGVPRLLTASERERLEPFIDQIHYSPRYADDEYEYRHVMLPKAMLKAIPTDYFNPETGTLRILQEEEWRGLGITQSLGWEMYEVHVPEPHILLFKREKDYQMKSQQRGG | soluble |
| MGHHHHHHSHMAFPGQSDTKMQWPEVPALPLLSSLCMAMVRKSSALGKEVGRRVKEMVMLVAPFRQSSSLSRTFSSRKVVKAHASLHGARLSPLSRNIRG | not soluble |
| MPELPEVETTRRRLRPLVLGQTLRQVVHRDPARYRNTALAEGRRILEVDRRGKFLLFALEGGVELVAHLGMTGGFRLEPTPHTRAALVLEGRTLYFHDPRRFGRLFGVRRGDYREIPLLLRLGPEPLSEAFAFPGFFRGLKESARPLKALLLDQRLAAGVGNIYADEALFRARLSPFRPARSLTEEEARRLYRALREVLAEAVELGGSTLSDQSYRQPDGLPGGFQTRHAVYGREGLPCPACGRPVERRVVAGRGTHFCPTCQGEGP | soluble |
| MGSDKIHHHHHHMFSKIEFKNFMSFSNLTFDLLNRGKCKDIIAIYGENGSGKTNIVEAFKLLVLSLQSMESLNENTRLQSLLKEQTNKEENQKTNFGDISEILDKISFFTTFKGIAKNTHRIASEGNTILKYYFNIEKDNGYYLLEYNENNELVKEELVFKIKSNKGVHFSITNIDGLSQSLNKTIFKNTIFKDLTEQIEKYWGKHTFLSIFNNYCLEVNEEFINEQVSINFQKVVDEFDKIFIWSGNFRGPFHSTELLLKDISKGKIDKSEKEKLSYTEEIIYKYFSALYIDIKDVKYKQDAQGQEIKYELMIRKNIGGDLLDVPISLESQGTKNLLDLLKVFNNVLDGKICIVDEIDSGIHDLLMNSILNDLKGSVNGQLIFTTHDTTLLKELSPSSAYFLNVDIKGNKVIISGNEADKKIGVNNNLEKLYLSGFFGAVPDPLDIDFSDLFLDHNLSED | not soluble |
| MGSDKIHHHHHHMSDIKFNSMTHFEAVARLGGVAKAAQELQVTPSAVSQQLRLLEHQLGVRLFQREKRHLSLTIDGERLFQTTTQAFESIREVRNAIVRQRESFQLSLRVSPSFGEKWLAPRLAEFSKDYPSWNLRVDATPNFSDFETEVIDLDLRYGDGGWAGLYSDCVVNDLILPMCSPSYLAELRGLSVDPREQLGHARLIDSVKAYFRWDYWLPRNGIQGARMTYPYRFDRSSMSVQLAKDGAGVVLESTTIAFEDLVSGSLVPVSTEFDVIEFPGYWLVCPSRHMNRRAVRLFSDWVSRVGQRDTDRARQFLSESGLHISFERRPHFGTPDDRAATML | not soluble |
| MGSDKIHHHHHHMTSAGTIEDAKGPAELRLALRQMLGEDIVLSETEEMLRFCRDWHGDVTTGTVAVIRPRSTQQVAAAVKACRELGLSIVPQGGNTGLVLGAIPDAPERQVVLSLSRMNRIRKIDPADFSAVVESGCILSELKDAIAKMGMFFPLALGAQGSCQIGGNVSTNAGGVNVLRYGMTRELVLGLEVVLPDGSILEGLSTLRKDNRGIDLKQLFIGAEGTLGIITAVSITLTPYPDHVATALLGLASLEDAIRLYRRARRDCCDLMSAFEFMPPLAFTLAQEAMPDLPIPISAEYPAYVLMEISGSGLVDVDDLMQRFLEGAMEEGLVLDGTIAASQTQARNLWLIREGMNEGQAKRGTHMRTDISVPLSQLASFVEEAEKAVSEALPGAVSVSYGHVGDGNVHLNVLPPAGSTPEERIQLIYKAKTVVNEVLDRYTGSISAEHGIGRLKRPDFDARLPATRRKLLTALKHAVDPEMIMNPGCQLRF | not soluble |
| MGSDKIHHHHHHMKFSEPLVEGRLIRRYKRFLADVQLPDGTEVTAHCPNTGSMLGCQPENARVWLSRSDNPKRKLQYTWELVETEPGVLACVNTVRPNAQARAAIEAGVVQSLAGYAQCRAEVRYGSEKSRIDLLLSGHDHDPDAWVEVKNVTLAEGGEGYFPDAVTERGQKHLRELMAQVQNGDRAVLFFVVNHTGIEQVRPADHIDARYGQLLREACEAGVEVIAYRAALAGEDGDPSGRLELVEEVPVSLEP | not soluble |
| MGSDKIHHHHHHMAQIKPISGAEDRVLLAEALPLVSPFTLNVFPTNACNFKCSYCAQSLGAEALAATYGMDRGFMSLETMELIVEQSKAFAPYKLLSFMGHGEPLLNRDLPKMISLAARAGIAQRIEIITNASMLTHEYADELIDSGLTNLRVSLQGLDMESYRKICGVALDFDRFMERLVYFYTHKKKDMGLFVKIMDVSLPIGGAKEFYKLFNNICDRMYVENVQPVYHAVDVHSSNGSDLTRYDRYGNAHPPRTVCPLAFFSLAVWPNGDVQPCDAIYKPCVLGNVHNTNLREMWDSELLKQFRIRHLRGEKEIITGCSNCCAPDDVSHPLDALDDRKDEILCRLFG | not soluble |
| MTEDRLSAEDKKFLEVERALKEAALNPLRHATEELFGDFLKMENITEICYNGNKVVWVLKNNGEWQPFDVRDRKAFSLSRLMHFARCCASFKKKTIDNYENPILSSNLANGERVQIVLSPVTVNDETISISIRIPSKTTYPHSFFEEQGFYNLLDNKEQAISAIKDGIAIGKNVIVCGGTGSGKTTYIKSIMEFIPKEERIISIEDTEEIVFKHHKNYTQLFFGGNITSADCLKSCLRMRPDRIILGELRSSEAYDFYNVLCSGHKGTLTTLHAGSSEEAFIRLANMSSSNSAARNIKFESLIEGFKDLIDMIVHINHHKQCDEFYIKHR | soluble |
| MGSDKIHHHHHHMEVDDVWDDTELIKMYDESLQEISKNETSAKITSRKFKGEDGKMYTWKVGGKCMAPYEENGEVTDYPATIDTIGGADNLEVGVTFIYYGGQAVVQMKDLWLNEEAIADAVKAENDLQKTKKTSTVNSVAHSNSKSTSSAPNTSMPFPSFAPPVPPNIIAMAPVNQKEAMNSMLMSWYMSGYHTGYYQALADQKNVQN | not soluble |
| MSKDFIINEQIRAREVRLIDQNGDQLGIKSKQEALEIAARRNLDLVLVAPNAKPPVCRIMDYGKFRFEQQKKEKEARK | soluble |
